The data set deals with HER2 on immobilised SKBR3 EVs (UniProt P04626 23-1255). The experiment in a line: fluorescence polarisation; SKBR3 EVs captured by anti-CD9/CD81; delta FP below LOD; FITC aptamer 5 nM, 1 h, room temperature, in antibody-captured EV wells; aptamers folded in PBS + 1.0 mM MgCl2 (CD63-BP, control) or PBS + 5.0 mM MgCl2 (HER2-HApt); pH not stated. Particulars: protein: native; tags: none; label: 5'-FITC; folded single strand.

For GCGCGAATGGGCGCGC (structured_DNA, 3' inverted dT) [FITC-negative control aptamer], the binding result was “no binding”.
